Reference: US20250289897A1 (Eli Lilly, published 2025)

Columns and labels:
[1] = target: T1, Recombinant LEPR extracellular domain fused to hIgG1-Fc (human LEPR ECD-TEV-Fc) (human); experiment: ELISA, plate coated with human LEPR ECD (SEQ ID NO:30) at 2 ug/mL, antibody titrated 1:3 from 50 ug/mL, goat anti-human kappa AP detection, OD560
T1 construct: The entry holds ECD, TEV site, human IgG1 Fc and a His tag in one chain; also called LEPR-Fc; hLEPR-TEV-hIgG1Fc
Experimental: The plate was then washed. Antibodies were titrated, starting at 50 μg/mL in Casein with 1:3 serial dilutions across the plate. Plate was incubated at RT for 1 hr. The plate is then washed.
The mixture was incubated at RT for 1 hr. The plate is then washed.
The curves indicate relative binding of IgG antibodies to human LEPR. The LEPR is bound to an ELISA plate and the antibodies are titrated in 3-fold increments starting at 50 μg/mL.

[2] = target: T2, human FcγRIIb (CD32b) extracellular domain (human, UniProt P31994 43-217); experiment: SPR at 25 C (Biacore T200), antibody captured on Protein A chip, FcγR ECD as analyte, steady state; average of 3, SD 0.17
T2 construct: extracellular domain
T2 sequence (looked up): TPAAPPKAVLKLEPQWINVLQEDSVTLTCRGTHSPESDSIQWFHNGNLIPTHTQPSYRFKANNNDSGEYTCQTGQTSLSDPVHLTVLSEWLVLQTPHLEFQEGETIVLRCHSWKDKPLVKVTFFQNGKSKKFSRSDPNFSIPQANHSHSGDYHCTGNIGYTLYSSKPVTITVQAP
Experimental: (§1) Briefly, the surfaces of all 4 flow cells were activated by injecting a 1:1 mixture of EDC/NHS for 7 minutes at 10 μL/minute. […] Un-reacted sites were blocked with a 7-minute injection of ethanolamine at 10 μL/minute. Injections of 2×10 μL of glycine pH 1.5 were used to remove any noncovalently associated protein.
(§2) For FcγRIIa, FcγRIIb, and FcγRIIIa binding, antibodies were diluted to 5 μg/mL in running buffer, and approximately 500 RU is captured in flow cells 2 through 4 (RUcaptured). FC1 is the reference flow cell. […] Duplicate injections of each concentration were injected over all FCs at 40 L/minute for 60 seconds followed by a 120 second dissociation phase. Regeneration was performed by injecting 15μL of 10 mM glycine pH 1.5 at 30 μL/minute over all FCs.
(§3) Reference-subtracted data was collected as FC2-FC1, FC3-FC1, and FC4-FC1. The measurements were obtained at 25° C. The affinity (KD) was calculated using the steady state equilibrium analysis with the Scrubber 2 Biacore® Evaluation Software.

[3] = target: T3, neonatal Fc receptor (FcRn) on FcRn Affinity Column Gen2 (Roche, Cat #09430857001) (UniProt P55899 24-297; P61769 21-119, limits assumed); experiment: FcRn-HPLC (Roche FcRn Affinity Column Gen2), pH gradient 5.5 to 8.8 over 90 minutes
Experimental: (§4) Stock antibody solutions were diluted to 1 mg/mL into 20 mM MES, 140 mM NaCl, pH5.5. […] 20 μμL antibody injections were made followed by 10 minute column wash with 20 mM MES, 140 mM NaCl, pH5.5. Antibodies were then eluted by pH gradient elution into 20 mM Tris, 140 mM NaCl, pH8.8 over 90 minutes. Chromatograms were blank-subtracted to remove baseline drift.

[4] = target: T4, Human C1q (MS Biomedical) (human, UniProt P02745 23-245; P02746 28-253; P02747 29-245); experiment: C1q ELISA, plate coated with the antibody at 0.19-10 ug/mL, human C1q added at 10 ug/mL, sheep anti-human C1q-HRP detection, OD450
T4 construct: the three subunits are from general knowledge; also called complement component C1q; Clq
Experimental: Testing was performed in duplicate wells. The plate was sealed and incubated overnight at 4° C. The coating reagent was removed from each well and 200 μL/well of casein blocking reagent (Thermo) was added. The plate was sealed and incubated for 2 hours at room temperature (RT). Each well was washed 3 times with wash buffer (1xTBE with 0.05% Tween 20). One hundred microliters per well of Human Clq (MS Biomedical) at 10 μg/mL diluted in casein blocking reagent was added and incubated for 3 hours at RT. The plate was then washed three times with wash buffer before 100 L/well of a 1:800 dilution of Sheep anti-human C1q-HRP (Abcam #ab46191) in casein blocker was added and incubated for 1 hour at RT. The plate was washed 6 times with wash buffer, and 100 μL/well of TMB Substrate (Pierce) was added to each well and incubated for 7 minutes. One hundred microliters of 1 N HCl was added to each well to stop the reaction.

[5] = target: T5, human FcγRIIIA_158F (CD16a) extracellular domain (human, UniProt P08637 17-208); experiment: SPR at 25 C (Biacore T200), antibody captured on Protein A chip, FcγR ECD as analyte, steady state; average of 3, SD 0.03
T5 construct: extracellular domain
Experimental: as §1, §2, §3

[6] = target: T6, human FcγRI (CD64) extracellular domain (human, UniProt P12314 16-292); experiment: SPR at 25 C (Biacore T200), antibody captured on Protein A chip, FcγR ECD as analyte; average of 3, SD 0.4
T6 construct: extracellular domain; also called FcγRI ECD
Experimental: as §1
For FcγRI binding, antibodies were diluted to 2.5 g/mL in running buffer (1x HBS-EP+, Teknova P/N H8022), and approximately 150 RU of each antibody was captured in flow cells 2 through 4 (RUcaptured). FC1 was the reference flow cell, therefore, no antibody was captured in FC1. […] Duplicate injections of each concentration were injected over all FCs at 40 μL/minute for 120 seconds followed by a 1200 second dissociation phase. Regeneration was performed by injecting 15 μL of 10 mM glycine pH 1.5 at 30 μL/minute over all FCs. Reference-subtracted data was collected as FC2-FC1, FC3-FC1, and FC4-FC1. The measurements were obtained at 25° C. The affinity (KD) was calculated using either steady state equilibrium analysis with the Scrubber 2 Biacore® Evaluation Software or a “1:1 (Langmuir) binding” model in BIA Evaluation.

[7] = target: T3, neonatal Fc receptor (FcRn) on FcRn …; experiment: FcRn-HPLC (Roche FcRn Affinity Column Gen2), peak width at 50% peak height
Experimental: as §4

T3 sequence (P55899 24-297 limits assumed, chain 1 of 2): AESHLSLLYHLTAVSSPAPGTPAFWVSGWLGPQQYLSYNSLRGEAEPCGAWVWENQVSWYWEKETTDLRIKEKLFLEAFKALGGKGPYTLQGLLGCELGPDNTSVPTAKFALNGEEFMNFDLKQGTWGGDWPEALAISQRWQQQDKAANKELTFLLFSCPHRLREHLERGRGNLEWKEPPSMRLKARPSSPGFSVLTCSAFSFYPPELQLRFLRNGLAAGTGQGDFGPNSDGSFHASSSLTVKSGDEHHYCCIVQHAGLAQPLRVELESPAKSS
T3 sequence (P61769 21-119 limits assumed, chain 2 of 2): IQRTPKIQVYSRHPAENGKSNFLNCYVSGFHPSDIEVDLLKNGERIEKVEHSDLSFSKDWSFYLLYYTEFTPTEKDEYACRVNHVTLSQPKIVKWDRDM
T5 sequence (P08637 17-208): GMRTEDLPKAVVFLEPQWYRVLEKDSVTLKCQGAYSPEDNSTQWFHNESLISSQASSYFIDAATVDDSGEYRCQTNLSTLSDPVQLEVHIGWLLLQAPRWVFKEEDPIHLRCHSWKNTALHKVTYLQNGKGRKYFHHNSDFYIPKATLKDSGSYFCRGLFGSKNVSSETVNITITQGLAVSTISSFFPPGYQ
T6 sequence (P12314 16-292): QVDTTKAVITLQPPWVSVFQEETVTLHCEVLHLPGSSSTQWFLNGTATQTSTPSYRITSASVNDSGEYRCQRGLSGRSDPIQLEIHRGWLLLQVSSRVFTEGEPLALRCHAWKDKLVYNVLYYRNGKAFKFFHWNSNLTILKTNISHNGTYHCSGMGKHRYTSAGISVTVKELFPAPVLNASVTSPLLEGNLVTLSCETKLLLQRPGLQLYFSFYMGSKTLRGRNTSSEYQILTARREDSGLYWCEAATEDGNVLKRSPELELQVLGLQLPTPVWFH
T4 sequence (P02745 23-245 limits assumed, chain 1 of 3): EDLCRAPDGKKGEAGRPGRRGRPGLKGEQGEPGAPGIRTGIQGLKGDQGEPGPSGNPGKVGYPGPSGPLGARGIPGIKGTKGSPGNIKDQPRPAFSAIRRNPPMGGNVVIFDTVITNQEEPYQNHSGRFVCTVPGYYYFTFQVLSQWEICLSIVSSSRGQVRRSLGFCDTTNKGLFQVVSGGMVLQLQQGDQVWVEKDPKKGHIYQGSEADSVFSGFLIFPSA
T4 sequence (P02746 28-253 limits assumed, chain 2 of 3): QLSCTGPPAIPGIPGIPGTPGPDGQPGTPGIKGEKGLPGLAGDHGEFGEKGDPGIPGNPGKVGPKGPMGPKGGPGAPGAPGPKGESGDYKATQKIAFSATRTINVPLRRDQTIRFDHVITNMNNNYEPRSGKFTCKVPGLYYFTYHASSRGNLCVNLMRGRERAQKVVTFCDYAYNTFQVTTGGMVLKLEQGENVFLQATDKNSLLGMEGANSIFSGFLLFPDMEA
T4 sequence (P02747 29-245 limits assumed, chain 3 of 3): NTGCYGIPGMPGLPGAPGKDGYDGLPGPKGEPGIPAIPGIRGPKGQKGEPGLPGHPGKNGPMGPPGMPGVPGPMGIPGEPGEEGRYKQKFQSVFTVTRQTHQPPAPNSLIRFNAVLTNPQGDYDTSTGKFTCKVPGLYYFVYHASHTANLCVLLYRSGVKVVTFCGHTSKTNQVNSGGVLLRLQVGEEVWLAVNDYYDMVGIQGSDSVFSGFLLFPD
T1 sequence (chain, as listed by the source limits assumed): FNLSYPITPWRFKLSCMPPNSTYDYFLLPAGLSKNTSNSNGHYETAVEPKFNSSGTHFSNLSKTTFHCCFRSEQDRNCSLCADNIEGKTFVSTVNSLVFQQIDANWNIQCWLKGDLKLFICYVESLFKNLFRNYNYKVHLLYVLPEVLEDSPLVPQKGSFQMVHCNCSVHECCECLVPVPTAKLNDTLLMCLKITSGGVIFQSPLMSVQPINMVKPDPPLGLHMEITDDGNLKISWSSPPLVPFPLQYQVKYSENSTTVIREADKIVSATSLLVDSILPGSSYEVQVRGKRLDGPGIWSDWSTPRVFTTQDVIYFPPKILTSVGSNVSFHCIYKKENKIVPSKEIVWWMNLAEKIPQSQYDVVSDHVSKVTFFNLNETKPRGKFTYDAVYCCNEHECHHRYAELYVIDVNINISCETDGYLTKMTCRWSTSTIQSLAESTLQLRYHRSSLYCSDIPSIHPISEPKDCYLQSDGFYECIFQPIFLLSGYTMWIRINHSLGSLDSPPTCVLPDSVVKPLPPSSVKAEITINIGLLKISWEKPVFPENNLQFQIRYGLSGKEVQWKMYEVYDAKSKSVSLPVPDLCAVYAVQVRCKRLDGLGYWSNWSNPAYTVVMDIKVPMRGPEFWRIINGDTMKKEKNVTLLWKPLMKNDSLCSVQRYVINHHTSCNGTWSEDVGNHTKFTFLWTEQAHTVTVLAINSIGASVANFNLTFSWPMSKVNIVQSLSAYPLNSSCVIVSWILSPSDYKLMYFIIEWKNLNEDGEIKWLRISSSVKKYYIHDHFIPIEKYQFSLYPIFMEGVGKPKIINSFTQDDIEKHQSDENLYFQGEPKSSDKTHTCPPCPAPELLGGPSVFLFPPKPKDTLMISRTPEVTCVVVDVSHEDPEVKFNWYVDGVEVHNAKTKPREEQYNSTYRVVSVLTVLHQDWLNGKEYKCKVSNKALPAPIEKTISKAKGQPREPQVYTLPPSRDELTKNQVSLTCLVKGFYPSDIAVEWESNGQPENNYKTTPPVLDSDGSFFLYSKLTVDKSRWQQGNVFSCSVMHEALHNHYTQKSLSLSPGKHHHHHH

B1: Antibody D (antibody, human IgG1, kappa, L234A L235A, V domains shown)
VH: EVQLLESGGGLVQPGGSLRLSCAASGFTFSSFAMSWVRQAPGKGLEWVSAISGSGGSTYSADSVRGRFTISRDNSKNTLYLQMNSLRAEDTAVYYCAKDQGDWDFLFDYWGQGTLVTVSS
VL: DIQMTQSPSFLSASVGDRVTITCRASQGISSSLAWYQQKPGKAPKLLIYTASTLQSGVPSRFSGSGSGTEFTLTISSLQPEDFATYYCQQLNYYPFTFGQGTKVEIKR
notes: Same HC as Antibody A
EC50 (read off the curve) [1]: ~0.07 µg/mL

B2: Antibody A-IgG1 (antibody)
heavy: not shown
light: DIQMTQSPSFLSASVGDRVTITCRASQGISSSLAWYQQKPGKAPKLLIYTASTLQSGVPSRFSGSGSGTEFTLTISSLQPEDFATYYCQQLIYYPFTFGQGTKVEIKRTVAAPSVFIFPPSDEQLKSGTASVVCLLNNFYPREAKVQWKVDNALQSGNSQESVTEQDSKDSTYSLSSTLTLSKADYEKHKVYACEVTHQGLSSPVTKSFNRGEC
notes: there they lie 3 residues further on); also called Antibody A-IgG1 control; Antibody-A with non-modified IgG1
Kd [2]: 3.61 µM
Retention Time [3]: 69.5 min
EC50 (read off the curve) [4]: ~1 µg/mL
Kd [5]: 1.56 µM
Kd [6]: 67.6 pM
Peak Width [7]: 1.7 min

B3: Antibody A IgG4PAA-YTE (antibody)
heavy: EVQLLESGGGLVQPGGSLRLSCAASGFTFSSFAMSWVRQAPGKGLEWVSAISGSGGSTYSADSVRGRFTISRDNSKNTLYLQMNSLRAEDTAVYYCAKDQGDWDFLFDYWGQGTLVTVSSASTKGPSVFPLAPCSRSTSESTAALGCLVKDYFPEPVTVSWNSGALTSGVHTFPAVLQSSGLYSLSSVVTVPSSSLGTKTYTCNVDHKPSNTKVDKRVESKYGPPCPPCPAPEAAGGPSVFLFPPKPKDTLYITREPEVTCVVVDVSQEDPEVQFNWYVDGVEVHNAKTKPREEQFNSTYRVVSVLTVLHQDWLNGKEYKCKVSNKGLPSSIEKTISKAKGQPREPQVYTLPPSQEEMTKNQVSLTCLVKGFYPSDIAVEWESNGQPENNYKTTPPVLDSDGSFFLYSRLTVDKSRWQEGNVFSCSVMHEALHNHYTQKSLSLSLGK
light: DIQMTQSPSFLSASVGDRVTITCRASQGISSSLAWYQQKPGKAPKLLIYTASTLQSGVPSRFSGSGSGTEFTLTISSLQPEDFATYYCQQLIYYPFTFGQGTKVEIKRTVAAPSVFIFPPSDEQLKSGTASVVCLLNNFYPREAKVQWKVDNALQSGNSQESVTEQDSKDSTYSLSSTLTLSKADYEKHKVYACEVTHQGLSSPVTKSFNRGEC
notes: VH and VL matched to Antibody A; Positions are Fc numbering as printed (EU index implied)
Retention Time [3]: 79.6 min
Peak Width [7]: 2.7 min

B4: Antibody A IgG1-YTE (antibody)
heavy: EVQLLESGGGLVQPGGSLRLSCAASGFTFSSFAMSWVRQAPGKGLEWVSAISGSGGSTYSADSVRGRFTISRDNSKNTLYLQMNSLRAEDTAVYYCAKDQGDWDFLFDYWGQGTLVTVSSASTKGPSVFPLAPSSKSTSGGTAALGCLVKDYFPEPVTVSWNSGALTSGVHTFPAVLQSSGLYSLSSVVTVPSSSLGTQTYICNVNHKPSNTKVDKRVEPKSCDKTHTCPPCPAPELLGGPSVFLFPPKPKDTLYITREPEVTCVVVDVSHEDPEVKFNWYVDGVEVHNAKTKPREEQYNSTYRVVSVLTVLHQDWLNGKEYKCKVSNKALPAPIEKTISKAKGQPREPQVYTLPPSREEMTKNQVSLTCLVKGFYPSDIAVEWESNGQPENNYKTTPPVLDSDGSFFLYSKLTVDKSRWQQGNVFSCSVMHEALHNHYTQKSLSLSPGK
light: DIQMTQSPSFLSASVGDRVTITCRASQGISSSLAWYQQKPGKAPKLLIYTASTLQSGVPSRFSGSGSGTEFTLTISSLQPEDFATYYCQQLIYYPFTFGQGTKVEIKRTVAAPSVFIFPPSDEQLKSGTASVVCLLNNFYPREAKVQWKVDNALQSGNSQESVTEQDSKDSTYSLSSTLTLSKADYEKHKVYACEVTHQGLSSPVTKSFNRGEC
Retention Time [3]: 80.3 min
Peak Width [7]: 2.8 min
